Assay results taken from the supplement of paper PMC9170038.

Each sequence was assayed on MS2 coat protein (assay: apparent KD of MS2 coat protein; higher = weaker reporter binding). Conditions: Eterna round: R107; input ligand: theophylline 2 mM.
Summary of the method: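 Titration buffer: 100 mM Tris-HCl pH 7.5, 80 mM KCl, 4 mM MgCl2, without or with constant ligand. Designed RNA switches transcribed on-chip from Illumina sequencing clusters received SNAP-549-labelled MS2 coat protein in twofold steps from 0.7 or 1.5 nM to 3 µM. Apparent KD is the median per design of fits to normalised cluster binding curves.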

Sequence | apparent KD of MS2 coat protein [nM]
UGUACCAUGUCGGCCGCCACUCAUGAUAAACAUGAGGAUCACCCAUGUAGCGUCAAAGACGCUAUGAGGACCGGGACAUGGUACU [TryBS Zipper 2 #StaticStem #Zipper] | 45
GGGAUAUAGGCGGCCGCCACUGAUUUUCAUAUAUAUAUAACAUGAGGAUCACCCAUGUAGAUAUACAGGACCGGGCCUAUAUUUU [aaaD] | 21.1
GUACAUGAGGAUCACCCAUGUAUAGUUGAAGGAGCGACCGGAGGGUCAGGUAGGUCGCAGCACAUGGCGUAAACCCGUGUAUGCC [#1 Exclusion - Arginine A Attempt #24 (Inspired by Pi)] | 31.9
GUUGGUUUGGGAAGGAGCGGGUAUGUUGUCUACUUGAUCCUAACAUGAGGAUCACCCAUGUCCCAGGUAGGUCGCCCAAGCUUUG [12.aE] | 316
ACGAUAGGGCAUGAGGAUCACCCAUGUGAUACCAGCCUGGAAACAGGCCCUUGGCAGCAUUAAUACUCCAAUAACCUAUCGAAUA [TheoAX 17 #MicroSwitchBubble #AlternativeMS2] | 864
CCGGGCCCGGGAGACCGGGCCCGGACUGAAGGAGCGGGAAUAAACCCAGGUAGGUCGCAGAGAUCCACAUGAGGAUCACCCAUGU [!0.U] | 36.5
AGCCACUCGAACAUGGGUGACGAGUGGCAACGAGGACCGGUACGGCCGCCACUCGAAUAAACAUGAGGAUCACCCAUGUACAAAU [T''-M'-T'-T-MS2 - Design 9] | 355
GGACUCGUCACGGCCGCCACUGCGGUGGUGUGACAUGAGGAUCACCCAUGUUGUCAUGCGGCCCUUAGGACCGGGUGUCGCGUCC [#1 Exclusion - Tryptophan B Attempt #25 (HarryS)] | 93.8
AAGAUACUCUGAAGGAGCGGCAUAAAACAUGAGGAUCACCCAUGUGCGCGGGUGUAAUUAUGCCAGGUAGGUCGCAGAGUAUUUA [#03 Same State - Arginine B] | 629
CUAGACUGUGCGGCCGCCACUGGCUCAUCCUGCAUUACAUGAGGAUCACCCAUGUUGCGGCCUCCCAGGACCGGGCAUAGUCUGC [Riinzaa] | 734

Same assay, conditions: Eterna round: R107; input ligand: tryptophan 2.4 mM

Sequence | apparent KD of MS2 coat protein [nM]
GAUGAUAUUGCAGAUACCAGACACAUGAGGAUCACCCAUGUCGCUGGGUUACUGGGUCGUGUCCCUUGGCAGCUGCGAUAUCAUC [Belize] | 42.1
CUAUAAGUAACUGAUACCAGUGUACUGACAUGAGGAUCACCCAUGUUGGGUUUUGUUGUACACCCUUGGCAGCAGAAUCUUAUAG [AstrosExyTheB#14] | 72.5
CGUAUGUAGACGGCCGCCACUGGAACCUGAGGAUCACCCAGGUACAGGGUGGGUAACUCGAGAGUCAGGACCGGGUCUACAUACA [Tryp B Ex t3] | 38.6
AGACUGUCUUCGGACAGUCCGGACAGCCCGCGAGGACCGGUACGGCCGCCACUCGCACGAGGAUCACCCGUGUGAGGCUGUCCGA [Omei Tryp A Exc A v2] | 14.5
GCUAGUGGCAGAAGGAGCGAGGCCCGCGCACAUAACAUGAGGAUCACCCAUGUGGCGAGACCUCAGGUAGGUCGCUGCCACUAGC [EAB NP+V2 #1] | 12.4
AAGAAAACAUGAGCAAAGCUCAUGUGCGAAGGAGCGGCGGAAACGCCAGGUAGGUCGCGCACAUGAGCAUCAGCCAUGUGUAUCA [Omei Arginine B SS A v3] | 19.4
ACAUUUAACUGAAGGAGCGUGAUAUGUACAUGAGGAUCACCCAUGUCUUUCAUGUGAUUUUCACAGGUAGGUCGCAGACUAAUGA [JR_ExcArginiB_Sub003] | 11.6
AACAUGAGGAUCACCCAUGUAUUGGGUGAUACCAGCCUGAAUAAUGGCCCUUGGCAGCACCGCGCUAACUUUAUGUCUGCGAAAC [Erterean] | 118
CCUGCGUUUCUUUUCUUUCGCAGGAAUGAUACCAGUAGGGAAACCUACCCUUGGCAGCAUGGGUAACAUGAGGAUCACCCAUGUU [SSThA NP+V+V2 #5 Same Structure] | 343
GAUUGGAUUUGAAGGAGCGUCGAAAAUGGGUAAACAUGAGGAUCACCCAUGUAAAGGGAACGACAGGUAGGUCGCAAAUUUAAUC [AstromonsSSArgB#31] | 162
GGUGGCGUGACGGAUACCAGCCACCACCGAUAGACCACAUGAGGAUCACCCAUGUUGGGUGGCCCUUGGCAGCUGUCGUGCGGCG [#1 Same State - Theophylline B Attempt #17 (HarryS)] | 220
CUCUCAUGAACAUGAGGAUCACCCAUGUAACGAGGACCGGUACGGCCGCCACUCGAACGUGGAAACCAAUCGAGUGAGGUGGGAG [Tryp A Ex t5b] | 352
AAGCUGCCAAGAACAUGGGUGAAAUGUGAUACCAGCUAGGAAACUAGCCCUUGGCAGCACAUGAGGAUCACCCAUGUAAUAAUAA [(T)'-(M)'-(T1)-(T2)-(M1)-(M2)_Design2_2/19/17] | 377
AUAUUAGACCUGGAUACCAGCGACAUGAGGAUCACCCAUGUAUGUGCAUCUGCCAUGAUAUGCCCUUGGCAGCCACCGAGGUCGU [CZZMULLIN] | 10.8
CGUACAUGAGGAUCACCCAUGUUACAUGAUACCAGACAUGAAAAUGUCCCUUGGCAGCAUGGCGCUGAUAGGGCGGGAAACCCGA [Zabovresky] | 19.7
AGUAAUCUAUCAGAUACCAGACCCUCUUUAACAUGAGGAUCACCCAUGUCUAUGUUCUACGUCCCUUGGCAGCUGUAAAUGAUAA [JR_SSTheophyB_Sub002] | 57.7
AACAUGGGAUUAAAAUAAAUAAUAACUGAUACCAGACUAUAUAAUGUCCCUUGGCAGCAGAUACAUGAGGAUCACCCAUGUAUUA [JR_Nu_ExcTheophyA_Sub023] | 12.8
GGGAUAUAGGCGGCCGCCACUGAUUUUCAUAUAUAUAUAACAUGAGGAUCACCCAUGUAGAUAUACAGGACCGGGCCUAUAUUUU [aaaD] | 13.5
GUACAUGAGGAUCACCCAUGUAUAGUUGAAGGAGCGACCGGAGGGUCAGGUAGGUCGCAGCACAUGGCGUAAACCCGUGUAUGCC [#1 Exclusion - Arginine A Attempt #24 (Inspired by Pi)] | 23
GUUGGUUUGGGAAGGAGCGGGUAUGUUGUCUACUUGAUCCUAACAUGAGGAUCACCCAUGUCCCAGGUAGGUCGCCCAAGCUUUG [12.aE] | 186
UGGUAGCCACACUUCAAACAUCGACAAGAUACCAGUUAAUCAACGAACCCUUGGCAGCUUCGUACAUGAGGAUCACCCAUGUGGA [theeternabot_exclusion_MS2_Theo_A_6] | 19.5
ACGAUAGGGCAUGAGGAUCACCCAUGUGAUACCAGCCUGGAAACAGGCCCUUGGCAGCAUUAAUACUCCAAUAACCUAUCGAAUA [TheoAX 17 #MicroSwitchBubble #AlternativeMS2] | 111
CCGGGCCCGGGAGACCGGGCCCGGACUGAAGGAGCGGGAAUAAACCCAGGUAGGUCGCAGAGAUCCACAUGAGGAUCACCCAUGU [!0.U] | 36.8
AAACUGGGUGUAAAAUAAAUAAUCACUGAUACCAGACUAUUUUAUGUCCCUUGGCAGCAGAAACAUGAGGAUCACCCAUGUAAUA [JR_Nu_ExcTheophyA_Sub025] | 26.7
AGUGGGUGUUAUGAUACCAGCGUAAUACACAACAUGAGGAUCACCCAUGUGGAGCCUCGCCGCCCUUGGCAGCAUUGGGCCCGCA [theeternabot_sameState_MS2_Theo_B_4] | 223
AAGAUACUCUGAAGGAGCGGCAUAAAACAUGAGGAUCACCCAUGUGCGCGGGUGUAAUUAUGCCAGGUAGGUCGCAGAGUAUUUA [#03 Same State - Arginine B] | 412
